# Measurements: publication PMC3081313, “Factors Defining the Functional Oligomeric State of Escherichia coli DegP Protease” (PLoS ONE, 2011)
# B1: proteolytically inactive DegP_(S210A) (enzyme, Escherichia coli, UniProt P0C0V0 27-474, looked up)
# chain: AETSSATTAQQMPSLAPMLEKVMPSVVSINVEGSTTVNTPRMPRNFQQFFGDDSPFCQEGSPFQSSPFCQGGQGGNGGGQQQKFMALGSGVIIDADKGYVVTNNHVVDNATVIKVQLSDGRKFDAKMVGKDPRSDIALIQIQNPKNLTAIKMADSDALRVGDYTVAIGNPFGLGETVTSGIVSALGRSGLNAENYENFIQTDAAINRGNAGGALVNLNGELIGINTAILAPDGGNIGIGFAIPSNMVKNLTSQMVEYGQVKRGELGIMGTELNSELAKAMKVDAQRGAFVSQVLPNSSAAKAGIKAGDVITSLNGKPISSFAALRAQVGTMPVGSKLTLGLLRDGKQVNVNLELQQSSQNQVDSSSIFNGIEGAEMSNKGKDQGVVVNNVKTGTPAAQIGLKKGDVIIGANQQAVKNIAELRKVLDSKPSVLALNIQRGDSTIYLLMQ
# notes: Escherichia coli DegP (HtrA, protease Do), periplasmic protease and chaperone, with the active-site change S210A; Number of copies depends on the sample: hexamer alone, 12-mer or 24-mer with substrate; also called HtrA_(S210A); DegP6
# Legend:
# [1] = molecular target: the molecule itself; test: SEC; DegP_(S210A) alone (42 µM monomer), incubated in 50 mM HEPES pH 7.3 at 37°C for 10 min; Superdex 200 10/300 GL in 50 mM HEPES pH 7.3, 150 mM NaCl at 4°C
# [2] = molecular target: the molecule itself; test: SEC; DegP_(S210A) mixed with MDH peptide fragments, 37°C 10 min; Superdex 200 in 50 mM HEPES pH 7.3, 150 mM NaCl at 4°C
# [3] = molecular target: the molecule itself; test: SEC; DegP_(S210A) (42 µM) mixed with full-length β-casein (42 µM; also in molar excess), 37°C 10 min in 50 mM HEPES pH 7.3; Superdex 200 in 50 mM HEPES pH 7.3, 150 mM NaCl at 4°C; peak fractions on SDS-PAGE
# [4] = molecular target: B1; test: SEC; DegP_(S210A) (94 µM) mixed with P^+Z^+ peptide (376 µM), 37°C 10 min; Superdex 200 in 50 mM HEPES pH 7.3, 150 mM NaCl at 4°C; conditions: both partners purified
# [5] = molecular target: B1; test: SEC; DegP_(S210A) (94 µM) mixed with P^−Z^+ peptide (376 µM), 37°C 10 min; Superdex 200 in 50 mM HEPES pH 7.3, 150 mM NaCl at 4°C; conditions: both partners purified
binder,measurement,setting,value
B1,stoichiometry N,[1],6
same,stoichiometry N,[2],12
same,stoichiometry N,[3],24
ALVLDMMYGGMRGYQV (also called PepP^+Z^+; source: synthetic peptide (GenScript USA Inc.)) [PZ model peptide P^+Z^+],binding result,[4],binds
ALELDMMYGGMRGYQV (as P^+Z^+ but the P motif altered from ALV to ALE; source: synthetic peptide (GenScript USA Inc.)) [PZ model peptide P^−Z^+],binding result,[5],binds
